Reference: patent US20240209100A1 (DIAGONAL THERAPEUTICS, published 2024)
Where two headings read alike, the source gives them in different places.

T1: IL-18 receptor (IL-18Rα/IL-18Rβ) overexpressed on HEK-Blue IL-18 cells (Homo sapiens (Human), UniProt Q13478 19-541; O95256 20-599)
T1 sequence 1: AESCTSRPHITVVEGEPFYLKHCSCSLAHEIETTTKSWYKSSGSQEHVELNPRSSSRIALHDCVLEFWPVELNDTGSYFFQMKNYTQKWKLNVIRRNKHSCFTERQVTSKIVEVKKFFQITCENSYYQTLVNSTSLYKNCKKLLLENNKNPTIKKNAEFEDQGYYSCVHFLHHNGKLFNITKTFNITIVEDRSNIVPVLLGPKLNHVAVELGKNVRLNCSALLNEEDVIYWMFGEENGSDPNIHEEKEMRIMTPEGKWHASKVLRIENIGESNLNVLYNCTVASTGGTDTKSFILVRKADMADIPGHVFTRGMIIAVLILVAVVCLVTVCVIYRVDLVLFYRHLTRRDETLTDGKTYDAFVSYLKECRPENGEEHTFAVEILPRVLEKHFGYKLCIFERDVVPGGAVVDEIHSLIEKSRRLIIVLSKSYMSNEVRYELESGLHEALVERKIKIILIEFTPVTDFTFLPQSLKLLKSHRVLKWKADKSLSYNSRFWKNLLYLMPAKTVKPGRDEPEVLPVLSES
T1 sequence 2: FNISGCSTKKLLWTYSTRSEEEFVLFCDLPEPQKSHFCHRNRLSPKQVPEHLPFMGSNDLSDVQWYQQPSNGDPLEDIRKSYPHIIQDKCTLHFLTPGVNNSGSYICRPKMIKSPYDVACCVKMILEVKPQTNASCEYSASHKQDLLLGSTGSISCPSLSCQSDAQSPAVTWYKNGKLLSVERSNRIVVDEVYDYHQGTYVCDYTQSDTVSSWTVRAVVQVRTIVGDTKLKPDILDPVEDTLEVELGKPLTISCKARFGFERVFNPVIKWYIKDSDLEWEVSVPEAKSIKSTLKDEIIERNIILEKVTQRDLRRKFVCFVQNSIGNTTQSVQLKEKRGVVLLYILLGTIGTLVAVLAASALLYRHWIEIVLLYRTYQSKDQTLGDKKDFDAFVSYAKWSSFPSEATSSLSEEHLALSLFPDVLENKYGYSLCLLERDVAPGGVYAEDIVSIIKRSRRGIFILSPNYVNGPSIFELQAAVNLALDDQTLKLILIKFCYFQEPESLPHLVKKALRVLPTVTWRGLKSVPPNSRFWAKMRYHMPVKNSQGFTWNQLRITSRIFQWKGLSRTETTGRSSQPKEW

T2: cynomolgus IL-18Rα (cynomolgus, UniProt A0A2K5V3J9 19-328)
T2 construct: also called Cyno IL-18Rα; non-human primate IL-18Rα
T2 sequence: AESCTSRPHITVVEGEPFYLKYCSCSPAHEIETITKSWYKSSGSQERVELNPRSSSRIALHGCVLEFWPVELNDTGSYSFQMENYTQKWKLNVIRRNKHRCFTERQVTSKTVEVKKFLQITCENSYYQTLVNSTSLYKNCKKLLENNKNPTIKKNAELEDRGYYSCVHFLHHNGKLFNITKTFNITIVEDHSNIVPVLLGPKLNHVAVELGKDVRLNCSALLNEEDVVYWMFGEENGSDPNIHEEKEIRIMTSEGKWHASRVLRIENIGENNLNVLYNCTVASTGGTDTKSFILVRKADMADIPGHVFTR

T3: human IL-18Rα (human, UniProt Q13478 19-329, limits assumed)
T3 construct: Monomeric antigen injected in SPR; also called huIL18Ra; IL-18R alpha
T3 sequence: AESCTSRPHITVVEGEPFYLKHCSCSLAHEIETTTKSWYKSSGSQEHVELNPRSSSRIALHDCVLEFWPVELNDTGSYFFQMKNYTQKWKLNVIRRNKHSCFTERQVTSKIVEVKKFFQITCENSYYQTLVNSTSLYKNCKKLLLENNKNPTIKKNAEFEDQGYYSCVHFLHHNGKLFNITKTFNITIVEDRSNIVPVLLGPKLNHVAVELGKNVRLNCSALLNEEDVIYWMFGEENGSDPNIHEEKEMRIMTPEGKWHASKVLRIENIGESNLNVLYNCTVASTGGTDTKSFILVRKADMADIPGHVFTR

T4: rhesus IL-18Rβ (rhesus, UniProt F7HHC1 20-356)
T4 construct: also called non-human primate IL-18Rβ
T4 sequence: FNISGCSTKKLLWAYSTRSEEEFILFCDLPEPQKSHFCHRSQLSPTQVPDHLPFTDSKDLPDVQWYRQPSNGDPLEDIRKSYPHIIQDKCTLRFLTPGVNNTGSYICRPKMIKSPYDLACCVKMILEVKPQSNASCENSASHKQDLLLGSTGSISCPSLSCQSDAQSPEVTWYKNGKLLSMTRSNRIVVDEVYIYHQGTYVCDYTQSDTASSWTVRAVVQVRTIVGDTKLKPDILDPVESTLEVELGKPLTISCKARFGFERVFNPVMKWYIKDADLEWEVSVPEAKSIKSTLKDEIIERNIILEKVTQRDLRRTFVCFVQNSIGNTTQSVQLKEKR

T5: human IL-18Rβ (human, UniProt O95256 20-356, limits assumed)
T5 construct: Monomeric antigen injected in SPR; also called IL-18R beta; IL-18Rb
T5 sequence: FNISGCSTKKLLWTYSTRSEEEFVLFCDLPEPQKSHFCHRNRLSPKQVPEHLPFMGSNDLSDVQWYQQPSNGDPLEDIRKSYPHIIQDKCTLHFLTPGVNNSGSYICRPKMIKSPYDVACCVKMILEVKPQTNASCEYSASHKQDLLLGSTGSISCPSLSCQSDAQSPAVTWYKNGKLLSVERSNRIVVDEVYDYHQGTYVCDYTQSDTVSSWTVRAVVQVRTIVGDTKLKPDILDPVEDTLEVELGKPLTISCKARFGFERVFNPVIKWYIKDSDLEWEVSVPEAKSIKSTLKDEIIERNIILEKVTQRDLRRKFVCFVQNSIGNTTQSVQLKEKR

T6: IL-18 receptor (IL-18Rα/IL-18Rβ) on human PBMCs (human, UniProt Q13478 19-541; O95256 20-599)
T6 sequence 1: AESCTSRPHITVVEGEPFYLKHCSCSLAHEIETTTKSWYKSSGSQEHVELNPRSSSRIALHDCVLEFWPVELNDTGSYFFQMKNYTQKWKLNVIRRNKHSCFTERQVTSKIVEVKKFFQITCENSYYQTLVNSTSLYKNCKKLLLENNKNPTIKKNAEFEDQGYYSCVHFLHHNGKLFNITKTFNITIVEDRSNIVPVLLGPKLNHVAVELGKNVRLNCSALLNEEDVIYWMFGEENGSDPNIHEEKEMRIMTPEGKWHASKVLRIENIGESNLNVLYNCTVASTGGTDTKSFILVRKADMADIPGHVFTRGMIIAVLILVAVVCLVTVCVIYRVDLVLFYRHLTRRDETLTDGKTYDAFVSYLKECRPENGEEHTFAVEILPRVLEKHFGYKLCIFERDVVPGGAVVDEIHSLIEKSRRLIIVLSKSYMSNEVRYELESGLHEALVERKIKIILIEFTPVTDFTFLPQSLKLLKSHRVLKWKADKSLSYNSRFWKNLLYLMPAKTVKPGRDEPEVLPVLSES
T6 sequence 2: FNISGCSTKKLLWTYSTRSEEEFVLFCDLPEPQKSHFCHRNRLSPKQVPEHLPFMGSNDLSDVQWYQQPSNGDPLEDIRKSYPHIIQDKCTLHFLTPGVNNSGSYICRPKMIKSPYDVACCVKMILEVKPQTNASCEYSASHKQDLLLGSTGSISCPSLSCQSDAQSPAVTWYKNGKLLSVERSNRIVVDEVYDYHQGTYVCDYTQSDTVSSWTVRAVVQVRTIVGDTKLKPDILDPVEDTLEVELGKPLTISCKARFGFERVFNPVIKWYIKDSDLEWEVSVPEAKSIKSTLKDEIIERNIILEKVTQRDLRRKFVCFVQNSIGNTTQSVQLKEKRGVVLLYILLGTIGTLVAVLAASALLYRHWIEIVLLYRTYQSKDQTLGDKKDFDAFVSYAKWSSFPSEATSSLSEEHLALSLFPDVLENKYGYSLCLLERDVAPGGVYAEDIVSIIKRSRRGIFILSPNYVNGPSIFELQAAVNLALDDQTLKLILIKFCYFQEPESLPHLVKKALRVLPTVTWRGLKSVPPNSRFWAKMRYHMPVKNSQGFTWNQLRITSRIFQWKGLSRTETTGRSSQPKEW


Columns and labels:
[1] = biological target: T1, IL-18 receptor (IL-18Rα/IL-18Rβ) …; test: cell-based or functional assay
[2] = biological target: T1, IL-18 receptor (IL-18Rα/IL-18Rβ) …; test: cell-based or functional assay; remark: listed apart in the source
[3] = biological target: T1, IL-18 receptor (IL-18Rα/IL-18Rβ) …; test: cell-based or functional assay; remark: listed apart in the source
[4] = biological target: T2, cynomolgus IL-18Rα; test: SPR (Carterra LSA), antibody captured on anti-human IgG-Fc, monomeric antigen as analyte, 25 C
Method: (§1) SPR experiments were performed using Carterra LSA equipped with an HC30M chip (Carterra-Bio). Binding assays were carried out at 25° C. with HBSTE (10 mM HEPES ph7.4, 150 mM NaCl, 3 mM EDTA, 0.05% Tween-20) with 0.5 g/L BSA. A density of anti-human IgG-Fc capture lawn was established on an HC30M chip using amine coupling. […] Coupling of goat anti-human IgG (H+L) multi-species SP ads-UNLB (Southern Biotech, 2087-01) with standard immobilization was done for 15 minutes in 10 mM sodium acetate pH 4.5 and quenched using 1M ethanolamine HCl PH8.5. The anti-human IgG-Fc capture surface was then used to capture a panel of antibodies at 20 μg/mL. Monomeric antigen for human IL-18Rα, human IL-18Rβ, cynomolgus IL-18Rα, or rhesus IL-18Rβ targeted by the antibodies was injected over the captured antibody array at 6 concentrations in 4-fold dilution series starting at 500 nM. Binding data was referenced and blanked from a buffer injected, then globally fit to a 1:1 Langmuir binding model for estimation of ka, kd, and KD using Carterra Kinetics Software.

[5] = biological target: T3, human IL-18Rα; test: as above
Method: as §1

[6] = biological target: T4, rhesus IL-18Rβ; test: as above
Method: as §1

[7] = biological target: T5, human IL-18Rβ; test: as above
Method: as §1

[8] = biological target: T6, IL-18 receptor (IL-18Rα/IL-18Rβ) on …; test: cell-based or functional assay

Row | Binder | HEK-Blue IL-18: Abs 405 at 100 nM [1] | HEK-Blue IL-18: Fold over Background [1] | EC50 (read off the curve), HEK Blue IL-18 SEAP reporter [2] | HEK-Blue IL-18: Abs 405 at 100 nM [3] | HEK-Blue IL-18: Fold over Background [3] | Kd [4] | Kd [5] | Kd [6] | Kd [7] | PBMC: calculated maximum induction of IFNγ after 24 hours, donor 1 [8] | PBMC: calculated maximum induction of IFNγ after 24 hours, donor 2 [8] | PBMC: calculated maximum induction of IFNγ after 24 hours, donor 3 [8] | PBMC: calculated maximum induction of IFNγ after 24 hours, donor 4 [8] | PBMC: calculated maximum induction of IFNγ after 24 hours, donor 5 [8] | PBMC: calculated maximum induction of IFNγ after 24 hours, donor 6 [8]
1 | DGL207 (bispecific antibody) heavy 1: QVQLVESGGGLVQAGGSLRLSCAASGRTFSKHAMGWFRQAPGKEREFVAAIDWSGGSTYYADSVKGRFTISRDNAKNTVYLQMDSLKPEDTAVYYCAADSYTDYAQLWLPELESEYDYWGQGTLVTVSSCPPCPAPEAAGAPSVFLFPPKPKDTLMISRTPEVTCVVVDVSHEDPEVKFNWYVDGVEVHNAKTKPREEQYNSTYRVVSVLTVLHQDWLNGKEYKCKVSNKALPAPIEKTISKAKGQPREPQVCTLPPSRDELTKNQVSLSCAVKGFYPSDIAVEWESNGQPENNYKTTPPVLDSDGSFFLVSKLTVDKSRWQQGNVFSCSVMHEALHNHYTQKSLSLSPGWSHPQFEK heavy 2: QLQLVESGGGLVQAGGSLRLSCAASRSITFSHNVMGWYRQAPGKQRELVASIGSGGSTNYVDSVKGRATISRDNAKKTVYLQMNSLKPEDTAVYYCGVVVGVYRGSLGQGTLVTVSSCPPCPAPEAAGAPSVFLFPPKPKDTLMISRTPEVTCVVVDVSHEDPEVKFNWYVDGVEVHNAKTKPREEQYNSTYRVVSVLTVLHQDWLNGKEYKCKVSNKALPAPIEKTISKAKGQPREPQVYTLPPCRDELTKNQVSLWCLVKGFYPSDIAVEWESNGQPENNYKTTPPVLDSDGSFFLYSKLTVDKSRWQQGNVFSCSVMHEALHNHYTQKSLSLSPGEPEA | 2.6 Abs | 11.4 fold | ~0.5 nM |  |  |  |  |  |  |  |  |  |  |  | 
2 | DGL336 (bispecific antibody, V domains shown, humanized VHH-Fc heterodimer) V domain 1: EVQLLESGGGLVQPGGSLRLSCAASGRTFSKHAMGWFRQAPGKGLEFVSAIDWSGGSTYYADSVKGRFTISRDNSKNTVYLQMNSLRAEDTAVYYCAADSYTDYAQLWLPELESEYDYWGQGTLVTVSS V domain 2: EVQLVESGGGLIQPGGSLRLSCAASGSISSRDTMGWYRQAPGKGREMVSVISSSGNTNYADSVLGRFTISRDNAKNTVYLQMNALRAEDTAVYKCYAHRTYGVDYWGQGTLVTVSS |  |  |  | 0.9 Abs | 4.9 fold | 14 nM | 11 nM | 15 nM | 3.2 nM | 13000 | 620 | 17000 | 9300 | 1500 | 1300
3 | DGL620 (bispecific antibody) heavy 1: EVQLLESGGGLVQPGGSLRLSCAASGRTFSKHAMGWFRQAPGKGLEFVSAIDWSGGSTYYADSVKGRFTISRDNSKNTVYLQMNSLRAEDTAVYYCAADSYTDYAQLWLPELESEYDYWGQGTLVTVSSCPPCPAPEAAGAPSVFLFPPKPKDTLYITREPEVTCVVVDVSHEDPEVKFNWYVDGVEVHNAKTKPREEQYNSTYRVVSVLTVLHQDWLNGKEYKCKVSNKALPAPIEKTISKAKGQPREPQVCTLPPSRDELTKNQVSLSCAVKGFYPSDIAVEWESNGQPENNYKTTPPVLDSDGSFFLVSKLTVDKSRWQQGNVFSCSVMHEALHNHYTQKSLSLSPG heavy 2: QLQLLESGGGLVQAGGSLRLSCAASRSITFSHNVMGWYRQAPGKGRELVSSIGSGGSTNYVDSVKGRFTISRDNSKKTLYLQMNSLRAEDTAVYYCGVVVGVYRGSLGQGTLVTVSSCPPCPAPEAAGAPSVFLFPPKPKDTLYITREPEVTCVVVDVSHEDPEVKFNWYVDGVEVHNAKTKPREEQYNSTYRVVSVLTVLHQDWLNGKEYKCKVSNKALPAPIEKTISKAKGQPREPQVYTLPPCRDELTKNQVSLWCLVKGFYPSDIAVEWESNGQPENNYKTTPPVLDSDGSFFLYSKLTVDKSRWQQGNVFSCSVMHEALHNHYTQKSLSLSPG |  |  | ~1 nM | 1.87 Abs | 10.1 fold | 10 nM | 8 nM |  | 14 nM | 16000 | 1300 | 22000 | 19000 | 15000 | 2400
